# Reference: the supplement of paper PMC11208486
# ± gives the uncertainty stated by the source.
# Experiment: specific initial activity, cyclohex-2-enone reduction (U mg-1); higher = more active
# Experimental: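 Purified His-tagged ene reductases in 50 mM sodium phosphate pH 7.4 with 0-30% (v/v) organic co-solvent. Melting temperature was measured by the ThermoFMN assay (FMN fluorescence, 20-90 °C at 1 °C/min, inflection point, triplicate). Specific initial activity was measured with 10 mM cyclohex-2-enone and 0.2 mM NAD(P)H (NADH for LacER) as A340 depletion, at room temperature (DMSO, 2-propanol, n-propanol) or 25 °C (EtOH, MeOH), in triplicate. The TsOYE Tm is above the 90 °C measurement range.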
# [1] = co-solvent: 2-propanol, co-solvent concentration (% v/v): 0
# [2] = co-solvent: 2-propanol, co-solvent concentration (% v/v): 5
# [3] = co-solvent: 2-propanol, co-solvent concentration (% v/v): 10
# [4] = co-solvent: 2-propanol, co-solvent concentration (% v/v): 15
# [5] = co-solvent: 2-propanol, co-solvent concentration (% v/v): 20
# [6] = co-solvent: 2-propanol, co-solvent concentration (% v/v): 25
# [7] = co-solvent: 2-propanol, co-solvent concentration (% v/v): 30
# [8] = co-solvent: dimethyl sulfoxide, co-solvent concentration (% v/v): 0
# [9] = co-solvent: dimethyl sulfoxide, co-solvent concentration (% v/v): 5
# [10] = co-solvent: dimethyl sulfoxide, co-solvent concentration (% v/v): 10
# [11] = co-solvent: dimethyl sulfoxide, co-solvent concentration (% v/v): 15
# [12] = co-solvent: dimethyl sulfoxide, co-solvent concentration (% v/v): 20
# [13] = co-solvent: dimethyl sulfoxide, co-solvent concentration (% v/v): 25
# [14] = co-solvent: dimethyl sulfoxide, co-solvent concentration (% v/v): 30
# [15] = co-solvent: ethanol, co-solvent concentration (% v/v): 0
# [16] = co-solvent: ethanol, co-solvent concentration (% v/v): 5
# [17] = co-solvent: ethanol, co-solvent concentration (% v/v): 10
# [18] = co-solvent: ethanol, co-solvent concentration (% v/v): 15
# [19] = co-solvent: ethanol, co-solvent concentration (% v/v): 20
# [20] = co-solvent: ethanol, co-solvent concentration (% v/v): 25
# [21] = co-solvent: ethanol, co-solvent concentration (% v/v): 30
# [22] = co-solvent: methanol, co-solvent concentration (% v/v): 0
# [23] = co-solvent: methanol, co-solvent concentration (% v/v): 5
# [24] = co-solvent: methanol, co-solvent concentration (% v/v): 10
# [25] = co-solvent: methanol, co-solvent concentration (% v/v): 15
# [26] = co-solvent: methanol, co-solvent concentration (% v/v): 20
# [27] = co-solvent: methanol, co-solvent concentration (% v/v): 25
# [28] = co-solvent: methanol, co-solvent concentration (% v/v): 30
# [29] = co-solvent: n-propanol, co-solvent concentration (% v/v): 0
# [30] = co-solvent: n-propanol, co-solvent concentration (% v/v): 5
# [31] = co-solvent: n-propanol, co-solvent concentration (% v/v): 10
# [32] = co-solvent: n-propanol, co-solvent concentration (% v/v): 15
# [33] = co-solvent: n-propanol, co-solvent concentration (% v/v): 20
# [34] = co-solvent: n-propanol, co-solvent concentration (% v/v): 25
# [35] = co-solvent: n-propanol, co-solvent concentration (% v/v): 30
sequence,measurement,setting,value
MNPKYKPLFEPFTFKSGVTINNRIAVAPMTHYASNEDGTISEAELDYIIPRSKEMGMVITACANVTPDGKAFPGQPAIHDDSNIPGLKKLAQAIQAQGAKAVVQIHHGGIECPSELVPQQDVVGPSDVFDNGKQIARALTEEEVENIVKAFGEATRRAIEAGFDGVEIHGANGYLIQQFYSPKTNQRTDRWGGSDEKRLAFPLAIVDEVKKAASEHAKGAFLVGYRLSPEEPETPGLTMTETYTLVDALGDKELDYLHISLMDVNSKARRGADPTRTRMDLLNERVGNKVPLIAVGSIHSADDALAVIENGIPLVAMGREILVDPNWTVKVKEGREKQIETVIKGTDKEKYHLPEPLWQAIVNTQGWVPYKD,specific initial activity,[1],5.75 ± 0.28
same,specific initial activity,[2],6.02 ± 0.29
same,specific initial activity,[3],6.11 ± 0.24
same,specific initial activity,[4],6.21 ± 0.37
same,specific initial activity,[5],6.17 ± 0.29
same,specific initial activity,[6],5.81 ± 0.49
same,specific initial activity,[7],5.26 ± 0.24
same,specific initial activity,[8],4.09 ± 0.12
same,specific initial activity,[9],4.4 ± 0.11
same,specific initial activity,[10],4.34 ± 0.17
same,specific initial activity,[11],4.41 ± 0.29
same,specific initial activity,[12],4.2 ± 0.38
same,specific initial activity,[13],4.35 ± 0.44
same,specific initial activity,[14],4.2 ± 0.46
same,specific initial activity,[15],5.73 ± 0.43
same,specific initial activity,[16],5.9 ± 0.14
same,specific initial activity,[17],6.22 ± 0.39
same,specific initial activity,[18],6.67 ± 0.56
same,specific initial activity,[19],6.21 ± 0.7
same,specific initial activity,[20],6.62 ± 0.84
same,specific initial activity,[21],5.96 ± 0.43
same,specific initial activity,[22],5.71 ± 0.54
same,specific initial activity,[23],6.14 ± 0.51
same,specific initial activity,[24],5.62 ± 0.49
same,specific initial activity,[25],5.36 ± 0.24
same,specific initial activity,[26],5.05 ± 0.21
same,specific initial activity,[27],5.09 ± 0.59
same,specific initial activity,[28],4.27 ± 0.27
same,specific initial activity,[29],5.25 ± 0.46
same,specific initial activity,[30],5.2 ± 0.41
same,specific initial activity,[31],4.82 ± 0.17
same,specific initial activity,[32],4.55 ± 0.2
same,specific initial activity,[33],4.07 ± 0.42
same,specific initial activity,[34],3.69 ± 0.3
same,specific initial activity,[35],2.94 ± 0.14
MSFVKDFKPQALGDTNLFKPIKIGNNELLHRAVIPPLTRMRALHPGNIPNRDWAVEYYTQRAQRPGTMIITEGAFISPQAGGYDNAPGVWSEEQMVEWTKIFNAIHEKKSFVWVQLWVLGWAAFPDNLARDGLRYDSASDNVFMDAEQEAKAKKANNPQHSLTKDEIKQYIKEYVQAAKNSIAAGADGVEIHSANGYLLNQFLDPHSNTRTDEYGGSIENRARFTLEVVDALVEAIGHEKVGLRLSPYGVFNSMSGGAETGIVAQYAYVAGELEKRAKAGKRLAFVHLVEPRVTNPFLTEGEGEYEGGSNDFVYSIWKGPVIRAGNFALHPEVVREEVKDKRTLIGYGRFFISNPDLVDRLEKGLPLNKYDRDTFYQMSAHGYIDYPTYEEALKLGWDKK,specific initial activity,[1],1.22 ± 0.04
same,specific initial activity,[2],1.54 ± 0.08
same,specific initial activity,[3],1.7 ± 0.08
same,specific initial activity,[4],1.86 ± 0.06
same,specific initial activity,[5],1.8 ± 0.1
same,specific initial activity,[6],2 ± 0.09
same,specific initial activity,[7],2.05 ± 0.07
same,specific initial activity,[8],1.31 ± 0.12
same,specific initial activity,[9],1.43 ± 0.16
same,specific initial activity,[10],1.35 ± 0.05
same,specific initial activity,[11],1.31 ± 0.14
same,specific initial activity,[12],1.38 ± 0.06
same,specific initial activity,[13],1.32 ± 0.13
same,specific initial activity,[14],1.32 ± 0.08
same,specific initial activity,[15],1.49 ± 0.06
same,specific initial activity,[16],1.58 ± 0.11
same,specific initial activity,[17],1.78 ± 0.1
same,specific initial activity,[18],1.97 ± 0.14
same,specific initial activity,[19],2 ± 0.17
same,specific initial activity,[20],2.1 ± 0.04
same,specific initial activity,[21],2.46 ± 0.11
same,specific initial activity,[22],1.55 ± 0.06
same,specific initial activity,[23],1.72 ± 0.05
same,specific initial activity,[24],1.81 ± 0.07
same,specific initial activity,[25],2.07 ± 0.07
same,specific initial activity,[26],2.23 ± 0.15
same,specific initial activity,[27],2.42 ± 0.11
same,specific initial activity,[28],2.58 ± 0.11
same,specific initial activity,[29],1.3 ± 0.03
same,specific initial activity,[30],1.59 ± 0.06
same,specific initial activity,[31],1.83 ± 0.2
same,specific initial activity,[32],1.81 ± 0.18
same,specific initial activity,[33],1.86 ± 0.15
same,specific initial activity,[34],1.84 ± 0.13
same,specific initial activity,[35],1.96 ± 0.14
